Consider two molecules from article PMC8893695, “The microprotein Nrs1 rewires the G1/S transcriptional machinery during nitrogen limitation in budding yeast” (PLoS Biology, 2022).

Test [1] addresses T1, ^FLAGSwi4-Swi6 complex (S. cerevisiae, UniProt P25302 1-1093; P09959 1-803).
T1 construct: Swi4, S. cerevisiae; Swi6, S. cerevisiae; also called SBF; recombinant SBF; source: baculovirus-infected insect cells, purified (anti-FLAG M2 resin, eluted with FLAG peptide)
Put plainly: co-IP; recombinant ^FLAGSwi4-Swi6-^GSTWhi5 complexes (0.1 ug ^GSTWhi5) incubated with 0.1, 0.2 and 0.5 ug His6-tagged Nrs1 (4, 8 and 20 Nrs1:Whi5 molar ratio), captured on anti-FLAG beads; blots with anti-GST and anti-HIS6. The conditions noted are these: both partners purified.

The target of test [2] is T1, ^FLAGSwi4-Swi6 complex. In words: pull-down; recombinant ^HAWhi5 or ^GSTNrs1 titrated into preformed ^FLAGSwi4-Swi6-^GSTNrs1 or ^FLAGSwi4-Swi6-^HAWhi5 complexes immobilised on anti-FLAG resin; immunoblot and Coomassie. The conditions noted are these: both partners purified.

T1 sequence (P25302 whole entry, chain 1 of 2): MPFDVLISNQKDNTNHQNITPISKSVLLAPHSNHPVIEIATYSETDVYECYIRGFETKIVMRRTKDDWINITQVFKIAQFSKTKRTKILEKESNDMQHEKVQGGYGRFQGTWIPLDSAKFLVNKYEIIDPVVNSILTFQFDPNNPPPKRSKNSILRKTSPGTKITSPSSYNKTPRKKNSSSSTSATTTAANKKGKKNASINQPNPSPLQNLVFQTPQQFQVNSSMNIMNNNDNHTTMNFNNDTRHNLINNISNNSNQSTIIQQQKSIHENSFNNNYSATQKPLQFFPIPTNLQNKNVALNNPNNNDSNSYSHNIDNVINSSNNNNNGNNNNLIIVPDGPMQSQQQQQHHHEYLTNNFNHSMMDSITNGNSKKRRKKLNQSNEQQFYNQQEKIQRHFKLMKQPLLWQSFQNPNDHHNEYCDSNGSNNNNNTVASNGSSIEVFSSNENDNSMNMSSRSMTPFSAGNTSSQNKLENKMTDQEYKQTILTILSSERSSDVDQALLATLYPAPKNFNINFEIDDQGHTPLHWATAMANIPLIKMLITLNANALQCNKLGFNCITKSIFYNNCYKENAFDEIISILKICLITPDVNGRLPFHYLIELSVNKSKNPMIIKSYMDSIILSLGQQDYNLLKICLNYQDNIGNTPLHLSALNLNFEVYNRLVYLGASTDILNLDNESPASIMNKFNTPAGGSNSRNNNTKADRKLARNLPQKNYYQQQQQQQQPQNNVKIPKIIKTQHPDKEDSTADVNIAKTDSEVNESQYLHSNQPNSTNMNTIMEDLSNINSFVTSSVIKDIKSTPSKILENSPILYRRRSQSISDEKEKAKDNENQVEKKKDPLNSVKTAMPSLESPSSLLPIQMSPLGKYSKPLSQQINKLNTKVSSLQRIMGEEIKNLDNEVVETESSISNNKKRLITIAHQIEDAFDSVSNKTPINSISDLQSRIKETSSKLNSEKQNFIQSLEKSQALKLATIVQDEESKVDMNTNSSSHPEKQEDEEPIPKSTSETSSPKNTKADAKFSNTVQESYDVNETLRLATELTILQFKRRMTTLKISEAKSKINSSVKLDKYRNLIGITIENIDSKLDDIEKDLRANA
T1 sequence (P09959 whole entry, chain 2 of 2): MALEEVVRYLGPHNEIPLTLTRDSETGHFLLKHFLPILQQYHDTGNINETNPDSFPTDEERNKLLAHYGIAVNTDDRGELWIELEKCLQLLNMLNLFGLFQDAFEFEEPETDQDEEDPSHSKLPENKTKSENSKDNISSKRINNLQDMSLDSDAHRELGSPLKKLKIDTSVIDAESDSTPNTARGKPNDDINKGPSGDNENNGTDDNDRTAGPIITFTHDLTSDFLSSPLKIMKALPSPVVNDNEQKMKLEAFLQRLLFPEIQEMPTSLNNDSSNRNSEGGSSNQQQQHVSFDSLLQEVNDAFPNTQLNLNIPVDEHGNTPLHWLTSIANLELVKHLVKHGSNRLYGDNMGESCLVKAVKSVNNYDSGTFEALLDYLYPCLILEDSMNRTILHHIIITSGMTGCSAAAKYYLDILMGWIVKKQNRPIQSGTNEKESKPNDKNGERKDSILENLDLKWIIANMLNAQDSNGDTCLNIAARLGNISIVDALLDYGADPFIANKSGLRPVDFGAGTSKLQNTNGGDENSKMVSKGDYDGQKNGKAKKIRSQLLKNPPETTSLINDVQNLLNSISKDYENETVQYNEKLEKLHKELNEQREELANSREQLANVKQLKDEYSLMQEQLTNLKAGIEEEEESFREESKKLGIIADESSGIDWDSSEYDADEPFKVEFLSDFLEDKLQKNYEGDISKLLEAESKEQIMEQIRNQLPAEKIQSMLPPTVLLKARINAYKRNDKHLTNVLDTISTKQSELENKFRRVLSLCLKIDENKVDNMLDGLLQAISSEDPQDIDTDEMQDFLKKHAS

B1: ^GSTWhi5 (natural protein, S. cerevisiae, UniProt Q12416 1-295, looked up)
chain: MSLRTPKRSRTSDEQEQEQEQEQVQNPDTHVNNEHQQRPGPTTLLSTPVRLKNGFGTPSPPSPPGITKSITKSRRRPSTTSLQGIFMSPVNKRRVGITAHGRVYDHNDDGHESESEDDENEEENENQKKYDGHVSMPLLPPTTPKSRRSEVFLSPSPRLRSPPTAARRSTGERPIREISHTLRTRLNYALVKLQNGWTDKTLPELETELAPAVQTPPRRYHNRFPDSADAGTSAHTAFLQALGGHPPREEATAVETLMLLSSPTKKQQHRPVPATSAGEPTDETEPESDTEVETS
notes: Whi5, S. cerevisiae; also called recombinant GST-tagged Whi5; source: recombinant
Take B1: the binding result with ^FLAGSwi4-Swi6 complex [1] was “binds”.

B2: recombinant ^HAWhi5 (natural protein, S. cerevisiae, UniProt Q12416 1-295, looked up)
chain: MSLRTPKRSRTSDEQEQEQEQEQVQNPDTHVNNEHQQRPGPTTLLSTPVRLKNGFGTPSPPSPPGITKSITKSRRRPSTTSLQGIFMSPVNKRRVGITAHGRVYDHNDDGHESESEDDENEEENENQKKYDGHVSMPLLPPTTPKSRRSEVFLSPSPRLRSPPTAARRSTGERPIREISHTLRTRLNYALVKLQNGWTDKTLPELETELAPAVQTPPRRYHNRFPDSADAGTSAHTAFLQALGGHPPREEATAVETLMLLSSPTKKQQHRPVPATSAGEPTDETEPESDTEVETS
notes: Whi5, S. cerevisiae; source: recombinant
Turning to B2, the binding result in the test with ^FLAGSwi4-Swi6 complex [2] was “binds”.
